Where a SMILES comes first, the peptide text is derived from it. Where no end group is shown, it is not given here. [ ]: non-standard residue; d: D form. pY = N[C@@H](Cc1ccc(OP(=O)(O)O)cc1)C(=O)O

Consider 7 molecules from publication PMC3561853 (Journal of Cell Science, 2012).

B1: SH2-SH3B fragment of Vav1 (669-845) (domain or fragment, mouse, UniProt P27870 669-845, looked up)
chain: HLWYAGPMERAGAEGILTNRSDGTYLVRQRVKDTAEFAISIKYNVEVKHIKIMTSEGLYRITEKKAFRGLLELVEFYQQNSLKDCFKSLDTTLQFPYKEPERRAISKPPAGSTKYFGTAKARYDFCARDRSELSLKEGDIIKILNKKGQQGWWRGEIYGRIGWFPSNYVEEDYSEYC
B2: SH3A-SH2-SH3B fragment of Vav1 (596-845) (domain or fragment, mouse, UniProt P27870 596-845, looked up)
chain: KMEVFQEYYGIPPPPGAFGPFLRLNPGDIVELTKAEAEHNWWEGRNTATNEVGWFPCNRVHPYVHGPPQDLSVHLWYAGPMERAGAEGILTNRSDGTYLVRQRVKDTAEFAISIKYNVEVKHIKIMTSEGLYRITEKKAFRGLLELVEFYQQNSLKDCFKSLDTTLQFPYKEPERRAISKPPAGSTKYFGTAKARYDFCARDRSELSLKEGDIIKILNKKGQQGWWRGEIYGRIGWFPSNYVEEDYSEYC
B3: SH2 domain of Vav1 (669-771) (domain or fragment, mouse, UniProt P27870 669-771, looked up)
chain: HLWYAGPMERAGAEGILTNRSDGTYLVRQRVKDTAEFAISIKYNVEVKHIKIMTSEGLYRITEKKAFRGLLELVEFYQQNSLKDCFKSLDTTLQFPYKEPERR

Experiment [1] concerns the target T1, SH3A-SH2 fragment of Vav1 (596–771) (Mus musculus, UniProt P27870).
T1 sequence (P27870 596-771): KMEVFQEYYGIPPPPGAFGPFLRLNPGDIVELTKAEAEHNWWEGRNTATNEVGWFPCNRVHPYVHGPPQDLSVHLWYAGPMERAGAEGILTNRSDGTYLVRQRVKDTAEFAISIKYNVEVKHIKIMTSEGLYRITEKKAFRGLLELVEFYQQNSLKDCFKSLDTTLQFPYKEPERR
Kind of experiment: Isothermal titration calorimetry. Format: binding. A general note: ITC needs no label: the signal is the heat of the interaction.

Experiment [2] deals with T2, SH2-SH3B fragment of Vav1 (669–845) (Mus musculus, UniProt P27870).
T2 sequence (P27870 669-845): B1 chain
Kind of experiment: Isothermal titration calorimetry. It counts as binding.

Experiment [3] addresses SLP76 2pY peptide (pY112 and pY128) (mouse, phosphotyrosine at Y112 and at Y128 (EDDp…pYESPNE)). Kind of experiment: ITC.
Experiment [4] deals with B3. Kind of experiment: ITC.
Experiment [5] has as its target B1. Kind of experiment: ITC.
Experiment [6] deals with B2. Kind of experiment: ITC.
Experiment [7] has as its target T3, SH3A-SH2 fragment of Vav1 (596-771) (mouse, UniProt P27870 596-771).
T3 sequence (looked up): T1 sequence (P27870 596-771)
Kind of experiment: ITC.

In the case of `NC(=O)C[C@H](NC(=O)[C@@H]1CCCN1C(=O)[C@H](CO)NC(=O)[C@H](CCC(=O)O)NC(=O)[C@H](Cc1ccc(OP(=O)(O)O)cc1)NC(=O)[C@H](CC(=O)O)NC(=O)[C@H](CC(=O)O)NC(=O)[C@@H](N)CCC(=O)O)C(=O)N[C@@H](CC(=O)O)C(=O)O` [pY112] (HELM PEPTIDE1{E.D.D.[O=C([C@H](Cc1ccc(OP(=O)(O)O)cc1)N[*:1])[*:2]].E.S.P.N.D}$$$$V2.0), binding in experiment [1] was put at a Kd of 1060 nM. `NC(=O)C[C@H](NC(=O)[C@@H]1CCCN1C(=O)[C@H](CO)NC(=O)[C@H](CCC(=O)O)NC(=O)[C@H](Cc1ccc(OP(=O)(O)O)cc1)NC(=O)[C@H](CC(=O)O)NC(=O)CNC(=O)[C@@H](N)CC(=O)O)C(=O)N[C@@H](CCC(=O)O)C(=O)O` [pY128] (HELM PEPTIDE1{D.G.D.[O=C([C@H](Cc1ccc(OP(=O)(O)O)cc1)N[*:1])[*:2]].E.S.P.N.E}$$$$V2.0) registered a Kd in experiment [2] of 1060 nM. For the molecule B1, the “stoichiometry N” value in experiment [3] worked out at 2. Consider EDD[pY]ESPND [SLP76 pY112 peptide], for which the Kd in experiment [4] came out at 1640 nM; in experiment [5] it was 1320 nM; in experiment [6], 1850 nM. For B2, in experiment [3], the “stoichiometry N” value was 2. DGD[pY]ESPNE [SLP76 pY128 peptide]: the Kd was 1350 nM in experiment [6] and 1040 nM in experiment [7]. For the molecule B3, the “stoichiometry N” value in experiment [3] is 2 SH2 domain:peptide.

One may read the Kd as a measure of binding affinity in units of concentration. A lower Kd goes with a tighter complex. The stoichiometry N is a count of units in the complex or per binding partner.
